From patent US10112983B2, “Neuregulin variants and methods of screening and using thereof” (Zensun (Shanghai) Science & Technology, Co., Ltd., priority 2005, dated 2018)

Experiments:
[1] = target: T1, ErbB2&ErbB4 co-expressing COS 7 cells (Homo sapiens, UniProt Q15303); assay: Signal transduction: AKT phosphorylation by western blot; format: cell-based; settings: 10 minutes
T1 construct: expressed in transfected cells; host or cells: COS 7
Description: (§1) Similarly, to study the signal transduction ability of neuregulin and its mutations, ErbB2&ErbB3 or ErbB2&ErbB4 co-expressing COS 7 cells are used. The cells are grown to 80% confluence. In the afternoon, after the cells reach 80% confluence, the media is changed to serum free media. Then after 24 hours, different amounts of neuregulin or neuregulin variants are added into separate wells containing the cells. After 10 minutes, loading buffer is added to lyse the cells. The sample is then harvested and loaded into a separate well of gel for electrophoresis and western blot analysis.

[2] = target: T2, ErbB2&ErbB3 co-expressing COS 7 cells (Homo sapiens, UniProt P21860); assay: as above; format: cell-based; settings: 10 minutes
T2 construct: expressed in transfected cells; host or cells: COS 7
Description: as §1

[3] = target: T1, ErbB2&ErbB4 co-expressing COS 7 cells; assay: Receptor binding affinity assay (competition of bound radiolabeled ligand) on COS7 cells; settings: for receptor binding affinity compared with neuregulin: ErbB2&ErbB4 co-expressing cells; for EC50: Table 7 (footnote defines KD), read-out: EC50, COS7 cells (ErbB2&ErbB4 co-expression)
Description: (§2) To study the receptor binding affinity of neuregulin and its mutations, ErbB2&ErbB3 or ErB2&ErB4 co-expressing COS 7 are used. The cells are grown to 80% confluence. In the afternoon, after the cells reach 80% confluence, the media is changed to serum free media.

[4] = target: T2, ErbB2&ErbB3 co-expressing COS 7 cells; assay: as above; settings: for receptor binding affinity compared with neuregulin: ErbB2&ErbB3 co-expressing cells; for EC50: Table 7 (footnote defines KD), read-out: EC50, COS7 cells (ErbB2&ErbB3 co-expression)
Description: as §2

| AKT phosphorylation compared with neuregulin [1] | AKT phosphorylation compared with neuregulin [2] | receptor binding affinity compared with neuregulin [3] | EC50 [3] | EC50 [4] | Molecule | receptor binding affinity compared with neuregulin [4] |
| --- | --- | --- | --- | --- | --- | --- |
| more AKT phosphorylation than neuregulin | less AKT phosphorylation than neuregulin | much lower | 1060 nM | 1150 nM | L3A: neuregulin fragment (177-237) with alanine substitution for the 3rd amino acid (protein) SHAVKCAEKEKTFCVNGGECFMVKDLSNPSRYLCKCPNEFTGDRCQNYVMASFYKAEELYQ | nearly the same receptor binding affinity |
| more AKT phosphorylation than neuregulin | less AKT phosphorylation than neuregulin | much higher | – | – | D43A: neuregulin fragment (177-237) with alanine substitution for the 43rd amino acid (protein) SHLVKCAEKEKTFCVNGGECFMVKDLSNPSRYLCKCPNEFTGARCQNYVMASFYKAEELYQ | nearly the same receptor binding affinity |
| – | – | – | 282 nM | 1410 nM | NRG: the 177-237 amino acids fragment of neuregulin1β2 (SEQ ID NO:1) (protein, listed as Homo sapiens) SHLVKCAEKEKTFCVNGGECFMVKDLSNPSRYLCKCPNEFTGDRCQNYVMASFYKAEELYQ | – |

| Molecule | AKT phosphorylation compared with neuregulin [1] | AKT phosphorylation compared with neuregulin [2] | receptor binding affinity compared with neuregulin [3] | EC50 [3] | EC50 [4] | receptor binding affinity compared with neuregulin [4] |
| --- | --- | --- | --- | --- | --- | --- |
| 8A47A: neuregulin double mutant, simultaneous alanine substitutions for the 8th and 47th amino acids of the neuregulin fragment (protein) SHLVKCAAKEKTFCVNGGECFMVKDLSNPSRYLCKCPNEFTGDRCQAYVMASFYKAEELYQ | much more AKT phosphorylation than neuregulin | nearly same AKT phosphorylation as neuregulin | – | – | – | – |
